How the values were obtained:
CD137 protein = target: T1, CD137 protein (UniProt Q07011 24-186, limits assumed); test: competition ELISA with CD137L: CD137 receptor coated, antibody titrated, CD137L added; A450-A620 falls from about 1.25 to about 0.64 (midpoint of an inhibition curve, called EC50 in the sheet's table)
T1 construct: also called CD137 antigen; CD137 receptor
Procedure: CD137 receptor was diluted in DPBS to 1 μg/mL, and then coated onto an ELISA plate (Corning, Catalog number: 9018, high binding) with a volume of 50 μL (0.05 μg) per well, and incubated at 4° C. overnight. The plate was decanted and washed once; assay diluent was added 200 μL/well. […] The diluted CD137 receptor was added to the assay plate, 50 μL/well, in duplicate. The plate was incubated one hour at room temperature. […] The plate was incubated one hour at room temperature and then washed three times with PBST. Goat anti-human IgG-H+L HRP conjugated at 1:100,000 20 dilution was added to the plate at 100 μL/well. The plate was then incubated one hour at room temperature followed by washing with PBST four times. The TMB substrate solution was added at 100 μL/well. The color was allowed to develop for 15 minutes, and was stopped with 100 μL/well 2N H2SO4. Absorbance at 450 nm and 620 nm was determined by a Tecan F200 Pro reader.

[1] = target: T2, cynomolgus monkey CD137 on cells (cynomolgus monkey, UniProt A9YYE7 24-254); test: flow cytometry, cellular CD137; cynomolgus monkey CD137
T2 construct: whole, on cells; also called CHO-cynomolgus monkey CD137
Procedure: CHO cells over-expressing human or cynomolgus monkey CD137 and CHO parental cells were harvested by centrifugation at 1000 g for 3 minutes. The cells were resuspended in ice cold assay buffer at 2*10\hat{ }6/mL and transferred to 96-well V-bottom plate with 100 μL/well. […] The plate was mixed and incubated in the dark for 2 hours at 4° C. The cells were washed 3 times by centrifugation at 1000 g for 3 min and resuspended in ice cold assay buffer containing goat F(ab′)₂ anti-human IgG-Fc (PE), 100 μL/well. The plate was incubated in the dark for another 1 hour at 4° C. The cells were washed 2 times by centrifugation at 1000 g for 3 min and resuspended in ice cold assay buffer containing 2% PFA. The cells were then subjected to the flow cytometer immediately.
Mean fluorescence intensity (MFI) was calculated from the total cell population in the FCM experiments. Graphpad 7.0, “[Agonist] vs. response—Variable slope (four parameters)” was used to plot the binding MFI in dose response and to calculate FCM binding EC₅₀ values.

Ly050 = target: T3, Ly050; test: ELISA, clone 3712-IgG1v coated, CD137 protein titrated (EC50 is a concentration of the CD137 protein); full sigmoid, plateau about 2.2
T3 chain: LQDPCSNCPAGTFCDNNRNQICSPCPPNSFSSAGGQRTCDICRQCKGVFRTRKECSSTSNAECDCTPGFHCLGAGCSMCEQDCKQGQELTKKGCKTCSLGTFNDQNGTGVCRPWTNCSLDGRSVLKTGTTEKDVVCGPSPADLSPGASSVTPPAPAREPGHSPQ
Procedure: The plate was decanted and washed once; assay diluent was added 200 μL/well. After one-hour incubation at room temperature, the plate was washed with PBST one time. CD137 receptor human/mouse chimeras were diluted in assay diluent to 100 or 10 μg/mL, and then a 4-fold serial dilution in assay diluent for 11 points to final concentrations of 100000, 25000, 6250, 1562.5, 390.63, 97.66, 24.41, 6.10, 1.53, 0.38 and 0.095 ng/mL or 10000, 2500, 625, 156.25, 39.06, 9.77, 2.44, 0.61, 0.15, 0.038 and 0.0095 ng/mL. The diluted CD137 receptor was added to the assay plate, 50 μL/well, in duplicate. The plate was incubated one hour at room temperature and then washed three times with PBST. Goat anti-human IgG-H+L HRP conjugated at 1:100,000 20 dilution was added to the plate at 100 μL/well. The plate was then incubated one hour at room temperature followed by washing with PBST four times. The TMB substrate solution was added at 100 μL/well. The color was allowed to develop for 15 minutes, and was stopped with 100 μL/well 2N H2SO4. Absorbance at 450 nm and 620 nm was determined by a Tecan F200 Pro reader.

[2] = target: T4, recombinant human CD137 receptor protein (human, UniProt Q07011 24-186); test: ELISA, huCD137 coated, clone 3712 titrated; full sigmoid, plateau about 1.5
T4 construct: Coated on ELISA plates; also called recombinant human CD137 protein
Procedure: For the data shown in FIGS. 16C-D, chimeric CD137 receptor protein samples were diluted in DPBS to 5 μg/mL and then coated onto an ELISA plate (Corning, Catalog number: 9018, high binding) at 50 μL (0.25 μg) per well, and incubated at 4° C. overnight. The plate was decanted and washed once; assay diluent was added at 200 μL/well. After a 1-hour incubation at room temperature, the plate was washed with PBST one time. […] The plate was incubated 1 hour at room temperature and then washed three times with PBST. Goat anti-human IgG-H+L HRP-conjugated at 1:100,000 dilution or goat anti-mouse IgG (H+L) secondary antibody, HRP, 10 at 1:50,000 dilution was added to the plate at 100 μL/well. The plate was incubated 1 hour at room temperature followed by washing with PBST four times. The TMB substrate solution was added 100 μL/well. The color was permitted to develop for 15 minutes and then 100 μL/well 2N H2SO4 was added to terminate the reaction. Absorbance at 450 nm and 620 nm was determined by a Tecan F200 Pro reader.

IC50 (CD137 protein): 0.0643 µg/mL | EC50 [1]: ~0.3 nM | EC50 (Ly050): 0.00339 µg/mL | EC50 [2]: 0.0495 µg/mL
B1: Clone 3712-IgG1v (IgG1v/kappa) (antibody)
heavy: QVQLVQSGAEVKKPGASVKVSCKASGYTFAGFEMHWVRQAPGQGLEWMGAIDPKTGGTDYNQKFKDRVTMTRDTSISTAYMELSRLRSDDTAVYYCARDLGYFDVWGQGTLVTVSSASTKGPSVFPLAPSSKSTSGGTAALGCLVKDYFPEPVTVSWNSGALTSGVHTFPAVLQSSGLYSLSSVVTVPSSSLGTQTYICNVNHKPSNTKVDKKVEPKSCDKTHTCPPCPAPELLGPSVFLFPPKPKDTLMISRTPEVTCVVVDVEHEDPEVKFNWYVDGVEVHNAKTKPREEQYNSTYRVVSVLTVLHQDWLNGKEYKCKVSNKALPAPIEKTISKAKGQPREPQVYTLPPSREEMTKNQVSLTCLVKGFYPSDIAVEWESNGQPENNYKTTPPVLDSDGSFFLYSKLTVDKSRWQQGNVFSCSVMHEALHNHYTQKSLSLSPGK
light: DIQMTQSPSSLSASVGDRVTITCRASQDIRSNLNWYQQKPGGAVKLLIYYTSRLHSGVPSRFSGSGSGTDYTLTISSLQPEDFATYFCQQSEKLPRTFGGGTKVEIRRTVAAPSVFIFPPSDEQLKSGTASVVCLLNNFYPREAKVQWKVDNALQSGNSQESVTEQDSKDSTYSLSSTLTLSKADYEKHKVYACEVTHQGLSSPVTKSFNRGEC
notes: copies: 2 + 2

Source: patent US20210246218A1 (LYVGEN BIOPHARMA SUZHOU, published 2021)
